Consider one substance from US20150087584A1.

In the experiment the target is Helicoverpa armigera gut proteases (HGP) (Helicoverpa armigera). The experiment in a line: cell-based or functional assay.

inhibitory repeat domain IRD-7 of Capsicum annuum Pin-II proteinase inhibitors (CanPIs), sequence (O49146 other isoform, or with tags, fused parts or gaps): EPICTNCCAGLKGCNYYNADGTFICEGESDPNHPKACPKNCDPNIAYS

“inhibitory repeat domain IRD-7 of Capsicum annuum Pin-II proteinase inhibitors (CanPIs) (from UniProt O49146 152-198)” yielded an HGPI activity of the IRD alone at its IC50 concentration of 49%; an inhibition of HGP activity (BApNA and Azocasein substrates) of 40 to 45%.
